Source: PMC5473807, “Distribution and kinetics of the Kv1.3-blocking peptide HsTX1[R14A] in experimental rats” (Scientific Reports, 2017)

What was measured:
[1] = Distribution in the blood compartments; type: in vivo; details: rat, i.v., 0-4 h
Experimental: (§1) The analysis of [^64Cu]Cu-NOTA-HsTX1[R14A] degradation was analysed in one rat after single intravenous injection. The gas-anaesthetised (8% desflurane, 30% oxygen, air) rat was prepared on a heating bed for the blood sampling. A needle catheter was inserted in a tail vein and fixed for the injection of the radiotracer and supplementation of the withdrawn volume by E-153 (electrolyte infusion solution). A small incision on the right hind limb was made and a small superficial artery was exposed. A thin tube (polyethylene, 0.3 mm inner and 0.6 mm outer diameter) was inserted, moved to the femoral artery and fixed. Arterial blood samples were collected at 1, 3, 5, 10, 20, 30, 120 min p.i of the [^64Cu]Cu-NOTA-HsTX1[R14A]. After the end of experiment the anaesthetised animals were euthanised by infusion of KCl solution. For the differentiation of the activity distribution in the blood compartments (Fig. 3b) were blood samples centrifuged (3 min at 14,000 × g) to obtain the plasma (plasma total and blood cells in the precipitate). One kidney was homogenised with PBS (30% w/v) and then centrifuged as described for the blood samples. Urine was treated in analogy. All the supernatants from blood, kidney and urine samples were mixed with equal volume of MeCN to precipitate the protein fraction. The samples were again centrifuged (3 min at 14,000 × g), resulting in the precipitate the protein bound fraction (plasma proteins) and the supernatants (e.g. plasma water fraction) were analysed by radio-TLC with RP18 aluminium foil, MeCN/0.1% TFA mixed with H2O/0.1% TFA (v/v 1:1). The TLC plates were measured by radioluminography as described above. Aliquots of the whole blood samples and of all supernatants were measured for the ^64Cu activity concentration in a well counter.

[2] = Metabolite analysis by radio-TLC; type: in vivo; details: rat, i.v., one rat
Experimental: as §1

[3] = Tolerability in the animal experiments; type: in vivo, rat; details: rats, injections of up to 0.1 mg peptide/kg body weight, also anesthetised animals

For `CSCC[C@@H]1NC(=O)[C@@H]2CSSC[C@H](NC(=O)[C@H](CO)NC(=O)[C@H](C)NC(=O)COCCOCCNC(=O)CN3CCN(CC(=O)O)CCN(CC(=O)O)CC3)C(=O)N[C@@H](CCCNC(=N)N)C(=O)N[C@@H]([C@@H](C)O)C(=O)N3CCC[C@H]3C(=O)N[C@@H](CCCCN)C(=O)N[C@@H](CC(=O)O)C(=O)N[C@H]3CSSC[C@H](NC(=O)[C@H](CCCCN)NC(=O)[C@H](CCCNC(=N)N)NC(=O)[C@H](CC(N)=O)NC1=O)C(=O)N[C@@H](CCCCN)C(=O)N[C@H]1CSSC[C@H](NC(=O)[C@@H]4CCCN4C(=O)[C@H](CC(=O)O)NC(=O)[C@H](C)NC3=O)C(=O)N[C@@H](C)C(=O)N[C@@H](CCCCN)C(=O)N[C@@H](CCC(=O)O)C(=O)N[C@@H]([C@@H](C)O)C(=O)NCC(=O)N[C@@H](CSSC[C@@H](C(N)=O)NC(=O)[C@H](CCCNC(=N)N)NC(=O)[C@H](CC(N)=O)NC1=O)C(=O)N1CCC[C@H]1C(=O)N[C@@H](Cc1ccc(O)cc1)C(=O)NCC(=O)N[C@@H](CCCCN)C(=O)N2` [[^64Cu]Cu-NOTA-HsTX1[R14A], metal not drawn], the “fraction bound to plasma proteins” value ([1]; MeCN precipitate, % of total blood activity) was 5 ± 3%, the “fraction in blood plasma” value ([1]; centrifugation 3 min at 14,000 x g) was 82 ± 4 % of the whole blood ^64Cu activity and the “fraction in plasma water” value ([1]; supernatant after MeCN precipitation, % of total blood activity) was 75 ± 3%. The “plasma activity still present as original compound” value ([2]; arterial blood plasma, after 4 h) was 85%, the “metabolic stability in arterial blood plasma” value ([2]; first 2 h) was “without detectable radioactive metabolic products” and the “original compound in the kidneys” value ([2]; kidney extract, 4 h) was 31%. For the same molecule, the “original compound in the urine” value ([2]; urine, 4 h) was 15% and the toxic effects [3] was “did not show toxic effects”.
